B1: NP-A48 (ssDNA)
DNA: GCTGGATGTCGCTTACGACAATATTCCTTAGGGGCACCGCTACATTGACACATCCAGC
modifications: terminal amine (end not stated), coupled to carboxyl AuNP
B2: NP-A61 (ssDNA)
DNA: GCTGGATGTTGACCTTTACAGATCGGATTCTGTGGGGCGTTAAACTGACACATCCAGC
modifications: terminal amine (end not stated), coupled to carboxyl AuNP

Molecular target: SARS-CoV-2 nucleocapsid protein (N-protein) (SARS-CoV-2, UniProt P0DTC9 1-419)
Assay: FOPPR biosensor kinetics; 1x PBS pH 7.4, […]; temperature not stated
Settings: protein: commercial; chain copies: 2

Row | Binder | Kd [nM]
1 | B1 | 2.63
2 | B2 | 5.02

— paper PMC9599074, “Integration of Power-Free and Self-Contained Microfluidic Chip with Fiber Optic Particle Plasmon Resonance Aptasensor for Rapid Detection of SARS-CoV-2 Nucleocapsid Protein”
